According to patent EP0528271A1:

Biological target: human PTH receptor on mouse cranial bone-derived osteoblast-like cell strain MC3T3-EI (mouse cell strain (receptor given as 'human PTH receptor')) (UniProt P41593)
Assay: cell-based or functional assay

UniProt P41593, sequence (P41593 27-591): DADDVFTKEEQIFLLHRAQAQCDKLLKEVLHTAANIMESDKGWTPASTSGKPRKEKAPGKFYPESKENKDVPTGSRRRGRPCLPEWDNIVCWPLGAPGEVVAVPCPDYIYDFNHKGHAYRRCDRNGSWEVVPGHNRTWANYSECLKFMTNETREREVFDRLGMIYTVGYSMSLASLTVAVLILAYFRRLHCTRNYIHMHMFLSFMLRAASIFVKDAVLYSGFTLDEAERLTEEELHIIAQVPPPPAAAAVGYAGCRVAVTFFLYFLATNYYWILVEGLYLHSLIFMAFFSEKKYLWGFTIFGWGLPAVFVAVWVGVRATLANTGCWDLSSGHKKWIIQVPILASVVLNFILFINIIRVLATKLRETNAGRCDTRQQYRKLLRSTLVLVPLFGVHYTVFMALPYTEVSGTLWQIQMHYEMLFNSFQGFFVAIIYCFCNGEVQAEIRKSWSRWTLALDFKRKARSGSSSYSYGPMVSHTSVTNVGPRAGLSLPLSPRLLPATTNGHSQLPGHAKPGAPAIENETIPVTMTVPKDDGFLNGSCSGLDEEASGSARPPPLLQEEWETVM

Substance | Specific Activity (cAMP production in MC3T3-EI cells) (relative to natural type human PTH)
[Leu⁸] human PTH (1-84) (ligand) | 1
[Cys³⁵] human PTH (1-84) (ligand) | 0.6

Next, values leading:

Specific Activity (cAMP production in MC3T3-EI cells) (relative to natural type human PTH) | Substance
1 | Human PTH (1-84) (ligand)
0.2 | [Leu⁸] human PTH (second row with this label in the specific activity table; identity uncertain) (ligand)
0.3 | [Leu^8,18] human PTH (1-84) (ligand)
